Source: paper PMC3545062 (Structure (London, England : 1993), 2012)

Assays:
[1] = target: Cdc13 OB2 domain P371S (cdc13-1 mutation) (S. cerevisiae) (UniProt P32797); experiment: cross-linking
[2] = target: Cdc13 OB2 domain L401A (S. cerevisiae) (UniProt P32797); experiment: cross-linking
[3] = target: Cdc13 OB2 domain Y388A (S. cerevisiae) (UniProt P32797); experiment: cross-linking
[4] = target: T1, Cdc13 construct consisting of residues 344-924 (domains OB2-DBD-OB4) (S. cerevisiae, UniProt P32797 344-924); experiment: ITC
T1 sequence (looked up): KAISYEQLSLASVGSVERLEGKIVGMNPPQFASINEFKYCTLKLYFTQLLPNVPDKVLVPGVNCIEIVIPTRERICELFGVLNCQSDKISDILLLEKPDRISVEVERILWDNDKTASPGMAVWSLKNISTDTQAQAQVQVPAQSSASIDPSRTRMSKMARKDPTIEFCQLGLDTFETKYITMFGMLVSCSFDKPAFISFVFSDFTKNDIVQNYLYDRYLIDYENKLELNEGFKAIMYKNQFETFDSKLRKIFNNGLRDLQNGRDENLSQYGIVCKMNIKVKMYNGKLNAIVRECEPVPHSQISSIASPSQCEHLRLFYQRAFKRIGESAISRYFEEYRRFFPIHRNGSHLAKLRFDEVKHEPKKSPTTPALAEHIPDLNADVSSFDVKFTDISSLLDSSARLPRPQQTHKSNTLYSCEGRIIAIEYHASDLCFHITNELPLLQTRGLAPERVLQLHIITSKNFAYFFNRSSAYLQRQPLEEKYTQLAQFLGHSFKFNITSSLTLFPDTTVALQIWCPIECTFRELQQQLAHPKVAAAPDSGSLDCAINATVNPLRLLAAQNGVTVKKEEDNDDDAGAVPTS

cross-linking = target: the molecule itself; experiment: cross-linking

Molecule: Cdc13 OB2 domain P371S (cdc13-1 mutation) (from UniProt P32797 344-495) (domain or fragment)
- percent reduction of OB2 dimerization (cross-linking) [1]: 78%

Molecule: Cdc13 OB2 domain L401A (from UniProt P32797 344-495) (domain or fragment)
- percent reduction of OB2 dimerization (cross-linking) [2]: 50%

Molecule: Cdc13 OB2 domain Y388A (from UniProt P32797 344-495) (domain or fragment)
- percent reduction of OB2 dimerization (cross-linking) [3]: 70%

B1: C-terminal domain of Stn1, residues 311-494 (domain or fragment, S. cerevisiae, UniProt P38960 311-494, looked up)
chain: NRTSAKSNLMLILLGLQMKEISNSDLYKLKEVRSVVTSLASFLFQQQNVGVMKSFDSLEKEAFRDLVNRLVSQGLIGLKDKTSETFDLLPLKNLFEYAEKRISVLMKLQCYTGTVQLSHVQEKLHLPYITTNGIVDVFKECLKRTKKQYPEVLKNWWIDLDPKNGMEDQNSGILLHLEYAAAYS
- Kd [4]: 6.4 µM

B2: S. cerevisiae Cdc13 OB2 domain, wild type (domain or fragment, UniProt P32797 344-495, looked up)
chain: KAISYEQLSLASVGSVERLEGKIVGMNPPQFASINEFKYCTLKLYFTQLLPNVPDKVLVPGVNCIEIVIPTRERICELFGVLNCQSDKISDILLLEKPDRISVEVERILWDNDKTASPGMAVWSLKNISTDTQAQAQVQVPAQSSASIDPSR
- stoichiometry N (cross-linking): 2

B3: Cdc13 OB2 domain C383S (domain or fragment, S. cerevisiae, UniProt P32797 344-495, looked up)
chain: KAISYEQLSLASVGSVERLEGKIVGMNPPQFASINEFKYSTLKLYFTQLLPNVPDKVLVPGVNCIEIVIPTRERICELFGVLNCQSDKISDILLLEKPDRISVEVERILWDNDKTASPGMAVWSLKNISTDTQAQAQVQVPAQSSASIDPSR
- binding result (cross-linking): binds
